Data taken from publication PMC11267267, “Metabolic Recoding of NSUN2‐Mediated m^5C Modification Promotes the Progression of Colorectal Cancer via the NSUN2/YBX1/m^5C‐ENO1 Positive Feedback Loop” (Advanced Science, 2024).

Tested on: YBX1 cold shock domain (MST)
Experiment: MST
Conditions: not given in the material (MST and pull-down methods text missing)

With unmethylated ENO1 RNA oligo (MST) the Kd was 10.1 µM.
